Data: PMC6892150, “Dimerization of MORC2 through its C-terminal coiled-coil domain enhances chromatin dynamics and promotes DNA repair” (Cell Communication and Signaling : CCS, 2019)

Biological target: the molecule itself
Experiment: cross-linking; Flag-MORC2 purified from HEK293T, chemical cross-linking, immunoblotting

B1: microrchidia family CW-type zinc finger protein 2 (MORC2), full length, Flag- or HA-tagged (natural protein, human, UniProt Q9Y6X9 1-1032, looked up)
chain: MAFTNYSSLNRAQLTFEYLHTNSTTHEFLFGALAELVDNARDADATRIDIYAERREDLRGGFMLCFLDDGAGMDPSDAASVIQFGKSAKRTPESTQIGQYGNGLKSGSMRIGKDFILFTKKEDTMTCLFLSRTFHEEEGIDEVIVPLPTWNARTREPVTDNVEKFAIETELIYKYSPFRTEEEVMTQFMKIPGDSGTLVIIFNLKLMDNGEPELDIISNPRDIQMAETSPEGTKPERRSFRAYAAVLYIDPRMRIFIHGHKVQTKRLSCCLYKPRMYKYTSSRFKTRAEQEVKKAEHVARIAEEKAREAESKARTLEVRLGGDLTRDSRVMLRQVQNRAITLRREADVKKRIKEAKQRALKEPKELNFVFGVNIEHRDLDGMFIYNCSRLIKMYEKVGPQLEGGMACGGVVGVVDVPYLVLEPTHNKQDFADAKEYRHLLRAMGEHLAQYWKDIAIAQRGIIKFWDEFGYLSANWNQPPSSELRYKRRRAMEIPTTIQCDLCLKWRTLPFQLSSVEKDYPDTWVCSMNPDPEQDRCEASEQKQKVPLGTFRKDMKTQEEKQKQLTEKIRQQQEKLEALQKTTPIRSQADLKKLPLEVTTRPSTEEPVRRPQRPRSPPLPAVIRNAPSRPPSLPTPRPASQPRKAPVISSTPKLPALAAREEASTSRLLQPPEAPRKPANTLVKTASRPAPLVQQLSPSLLPNSKSPREVPSPKVIKTPVVKKTESPIKLSPATPSRKRSVAVSDEEEVEEEAERRKERCKRGRFVVKEEKKDSNELSDSAGEEDSADLKRAQKDKGLHVEVRVNREWYTGRVTAVEVGKHVVRWKVKFDYVPTDTTPRDRWVEKGSEDVRLMKPPSPEHQSLDTQQEGGEEEVGPVAQQAIAVAEPSTSECLRIEPDTTALSTNHETIDLLVQILRNCLRYFLPPSFPISKKQLSAMNSDELISFPLKEYFKQYEVGLQNLCNSYQSRADSRAKASEESLRTSERKLRETEEKLQKLRTNIVALLQKVQEDIDINTDDELDAYIEDLITKGD
notes: MORC2, human, full length (1032 residues by the printed numbering 950-1032 for the C-terminus); Flag-MORC2 and HA-MORC2 are two differently tagged copies of the same full-length protein; each chain carries one tag only; Written as one molecule because they are co-precipitated with each other to show self-association; Flag-MORC2 was the copy purified for cross-linking; HA-MORC2 was the copy …
  stoichiometry N: 2
